Here are results for one substance from patent publication US20250009896.

The test system of the series is T1, Free DX600 peptide.
T1 sequence: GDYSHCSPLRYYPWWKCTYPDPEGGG

With “Recombinant human angiotensin-converting enzyme 2 (ACE2) protein, carrier-free (R&D Systems)”, the “initial velocity of ACE2 cleavage of fluorogenic substrate” value is “there is no appreciable difference in the initial velocity of ACE2 cleavage in the presence of Ligand in comparison to the free DX600 peptide alone”.
